Drawing on patent publication EP4559472A1, this text covers Kd for 1 substance.

The experiment has as its target Biotinylated C4b (UniProt P0C0L4). Briefly: SPR, biotinylated C4b on streptavidin chip, 1:1 steady-state affinity model.

Sequence of mini-C4BP (P08603 other isoform, or with tags, fused parts or gaps): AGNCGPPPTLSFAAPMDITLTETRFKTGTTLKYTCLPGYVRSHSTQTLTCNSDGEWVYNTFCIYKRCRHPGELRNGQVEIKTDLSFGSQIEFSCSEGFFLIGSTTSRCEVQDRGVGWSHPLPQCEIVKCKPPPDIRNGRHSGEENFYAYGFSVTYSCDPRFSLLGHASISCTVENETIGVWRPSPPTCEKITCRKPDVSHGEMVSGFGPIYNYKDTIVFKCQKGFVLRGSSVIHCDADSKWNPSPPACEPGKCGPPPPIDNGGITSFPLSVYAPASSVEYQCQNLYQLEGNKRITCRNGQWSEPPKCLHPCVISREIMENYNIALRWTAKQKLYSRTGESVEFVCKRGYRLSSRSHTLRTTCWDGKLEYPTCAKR

As a reminder, the Kd is a measure of binding affinity in units of concentration. Higher therefore signals a looser complex. “mini-C4BP (from UniProt P08603 1107-1231)” showed a Kd of 600 nM.
